Test results taken from patent US20080139472A1, “UPREGULATING BDNF LEVELS TO MITIGATE MENTAL RETARDATION” (THE REGENTS OF THE UNIVERSITY OF CALIFORNIA, priority 2006, published 2008).
“Also recorded” adds a separate entry of the source. Values belong to the molecule of their own block, whether it stands above or below them.

Experiments:
Assay type in all cases: cell-based, mouse
NMDA receptor = NMDA receptor contribution to theta burst responses in hippocampal slices, estimated with APV
Experimental: (§1) Transverse hippocampal slices (350 m) through the mid-septotemporal hippocampus were prepared with a vibratome (VT 1000 S; Leica, Bannockbum, Ill.) in ice-cold artificial CSF [ACSF; containing (in mM) 124 NaCl, 3 KCl, 1.25 KH2PO4, 3.4 CaCl2, 2.5 MgSO4, 26 NaHCO3, and 10 dextrose, pH 7.35) from young (2-3 months old) adult Fmr1-KO and wild-type (WT) mice (unless otherwise specified, chemicals were from Sigma, St. Louis, Mo.). […] Related to this, pharmacological results obtained with such slices accurately predict effects obtained with chronic recordings or biochemical assays from behaving animals (Staubli et al., 1994; Lauterbom et al., 2003), a point that is of importance to those aspects of the present work concerned with therapeutic strategies. All experiments were initiated between 9:00 and 11:00 A.M., and slices from Fmr1-KO and WT animals were randomized across two chambers and run simultaneously. Slices were maintained at 31±1° C. in an interface recording chamber with the slice surface exposed to warm, humidified 95% O2/5% CO2 and continuous ACSF perfused at a rate of 60-70 ml/hr. Slices equilibrated to the chamber for at least 1 h before recordings were initiated. […] Evoked responses were digitized (NacGather 2.0; Theta Burst, Irvine, Calif.) and analyzed for amplitude and fall slope; data are presented as a percentage of baseline. Responses to individual theta bursts were analyzed to determine the burst area; to evaluate treatment effects on theta train facilitation, responses to each burst in the theta train are presented as a percentage change from the area of the initial burst response. […] Statistical significance was assessed using either two-way repeated-measures ANOVA to compare values that were stable over time or Mann-Whitney Utest to compare groups expressing different decay rates (i.e., values not stable over time); statistical analyses were performed using SPSS version 15.0 (SPSS, Chicago, Ill.) Variance for physiology experiments is expressed as SEM.

[1] = test system: hippocampal slices from Fmr1-KO mice; experiment: LTP (fEPSP slope) after theta burst stimulation in field CA1 of hippocampal slices from Fmr1-KO mice; conditions: for effect on TBS-induced increase in fEPSP slope (30-40 min post-TBS): compared with ACSF alone
Experimental: Transverse hippocampal slices (350 m) through the mid-septotemporal hippocampus were prepared with a vibratome (VT 1000 S; Leica, Bannockbum, Ill.) in ice-cold artificial CSF [ACSF; containing (in mM) 124 NaCl, 3 KCl, 1.25 KH2PO4, 3.4 CaCl2, 2.5 MgSO4, 26 NaHCO3, and 10 dextrose, pH 7.35) from young (2-3 months old) adult Fmr1-KO and wild-type (WT) mice (unless otherwise specified, chemicals were from Sigma, St. Louis, Mo.). […] Related to this, pharmacological results obtained with such slices accurately predict effects obtained with chronic recordings or biochemical assays from behaving animals (Staubli et al., 1994; Lauterbom et al., 2003), a point that is of importance to those aspects of the present work concerned with therapeutic strategies. All experiments were initiated between 9:00 and 11:00 A.M., and slices from Fmr1-KO and WT animals were randomized across two chambers and run simultaneously. Slices were maintained at 31±1° C. in an interface recording chamber with the slice surface exposed to warm, humidified 95% O2/5% CO2 and continuous ACSF perfused at a rate of 60-70 ml/hr. Slices equilibrated to the chamber for at least 1 h before recordings were initiated. A single glass electrode (2 M NaCl) was placed within the mid proximodistal CA1b stratum radiatum and was used to record field EPSPs (fEPSPs) from the apical dendrites of CA1 pyramidal cells. Orthodromic stimulation was delivered at two sites (CA1a and CA1c) in the apical Schaffer collateral-commissural projections to provide convergent activation of CA1b pyramidal cells. Pulses were administered in an alternating manner to the two electrodes at 0.05 Hz by using a current that elicited a 50% maximal response. […] Input-output and paired-pulse facilitation assays were performed as described previously (Rex et al., 2005). Synaptic potentiation was induced with a train of 5 or 10 theta bursts (each containing four pulses at 100 Hz, with an interburst interval of 200 ms) Carson et al., 1986; Kramar and Lynch, 2003; Rex et al., 2005). Evoked responses were digitized (NacGather 2.0; Theta Burst, Irvine, Calif.) and analyzed for amplitude and fall slope; data are presented as a percentage of baseline. Responses to individual theta bursts were analyzed to determine the burst area; to evaluate treatment effects on theta train facilitation, responses to each burst in the theta train are presented as a percentage change from the area of the initial burst response. Unless otherwise stated, group size values presented in the figures represent number of slices tested. Generally two to three slices were tested from a given mouse, and no fewer than three mice were used in any group; for statistical analyses, each slice was considered an individual n. Statistical significance was assessed using either two-way repeated-measures ANOVA to compare values that were stable over time or Mann-Whitney Utest to compare groups expressing different decay rates (i.e., values not stable over time); statistical analyses were performed using SPSS version 15.0 (SPSS, Chicago, Ill.) Variance for physiology experiments is expressed as SEM.
A recirculating perfusion system (oxygenated and heated as above) with a peristaltic pump (60 ml/hr; MasterFlex C/L; Cole-Parmer, Vernon Hills, Ill.) was used for experiments in which purified BDNF (catalog #GF029; Millipore, Temecula, Calif.) was administered to slices. The purity of the recombinant (mature) BDNF was confirmed using Western blot analyses: a single 14 kDa band was observed under denaturing conditions. Slices received BDNF for 30 min to 1 h before physiological recording. BDNF stock was prepared in ddH2O at a concentration of 50 ng/ml (this is equivalent to 1.85 nM based on the 27 kDa size of the dimer) and stored at −20° C. Control slices from the same animals received ACSF alone in parallel on a second recirculating interface chamber. […]

[2] = test system: hippocampal slices from WT mice; experiment: LTP (fEPSP slope) after theta burst stimulation in field CA1 of hippocampal slices from wild-type mice
Experimental: as §1, with “SEM. […]” for “SEM.”

[3] = WT slices, pair of theta bursts, mean of 6 slices
[4] = Fmr1-KO slices, five theta bursts

effect of APV on theta burst responses (NMDA receptor; Fmr1-KO slices, pair of theta bursts with and without APV): marked, and reversible, depression | effect of APV on the second burst response (NMDA receptor; [3]): reduced the size of fEPSPs 2 through 4
Molecule: N[C@@H](CCCP(=O)(O)O)C(=O)O [APV]
effect of APV on the first burst response (NMDA receptor; [3]): slight reduction in the half-width of the fourth fEPSP

B1: BDNF: purified recombinant (mature) BDNF, catalog #GF029; Millipore; single 14 kDa band under denaturing conditions (protein, UniProt P23560 19-247, looked up)
Neurotrophic factor BDNF …: APMKEANIRGQGGLAYPGVRTHGTLESVNGPKAGSRGLTSLADTFEHVIEELLDEDQKVRPNEENNKDADLYTSRVMLSSQVPLEPPLLFLLEEYKNYLDAANMSMRVRRHSDPARRGELSVCDSISEWVTAADKKTAVDMSGGTVTVLEKVPVSKGQLKQYFYETKCNPMGYTKEGCRGIDKRHWNSQCRTTQSYVRALTMDSKKRIGWRFIRIDTSCVCTLTIKRGR
LTP above baseline ([1]; Fmr1-KO slices treated with BDNF 15 ng/ml): > 40% | slope of the fEPSP enhanced above baseline ([1]; Fmr1-KO slices, BDNF 2 nM from 30 min before theta burst stimulation, five theta bursts, 40-50 min post-TBS): 44% | degree of LTP (fEPSP slope, percent above baseline) ([1]; Fmr1-KO slices, BDNF 50 ng/ml bath-applied, five theta bursts, minutes 30-40 post-TBS, mean ±SEM): 42.1±8.6% | effect on input-output curves / baseline transmission (fEPSP amplitude) ([1]; Fmr1-KO slices, BDNF 50 ng/ml vs ACSF alone or heat-inactivated BDNF): no effect; also recorded: did not alter | effect on facilitation of burst responses during theta trains ([1]; Fmr1-KO slices, BDNF 50 ng/ml vs ACSF and heat-inactivated BDNF): did not measurably affect | restoration of LTP ([1]; Fmr1-KO slices, brief infusion of 50 ng/ml BDNF, threshold theta burst stimulation): fully restored LTP | effect on TBS-induced increase in fEPSP slope (30-40 min post-TBS) [1, 4]: enhanced | potentiation (fEPSP slope, percent above baseline) ([2]; BDNF 50 ng/ml bath-applied, five theta bursts, minutes 30-40 post-TBS, mean ±SEM): 51.3±8.6% | effect on facilitation of burst responses during theta trains ([2]; BDNF 50 ng/ml vs ACSF): did not measurably affect | effect on input-output curves ([2]; BDNF 50 ng/ml vs ACSF alone): did not alter

B2: heat-inactivated BDNF: BDNF heat-inactivated by boiling for 5 min immediately before use; specificity control (protein, UniProt P23560 19-247, looked up)
Neurotrophic factor BDNF …: APMKEANIRGQGGLAYPGVRTHGTLESVNGPKAGSRGLTSLADTFEHVIEELLDEDQKVRPNEENNKDADLYTSRVMLSSQVPLEPPLLFLLEEYKNYLDAANMSMRVRRHSDPARRGELSVCDSISEWVTAADKKTAVDMSGGTVTVLEKVPVSKGQLKQYFYETKCNPMGYTKEGCRGIDKRHWNSQCRTTQSYVRALTMDSKKRIGWRFIRIDTSCVCTLTIKRGR
modifications: heat-inactivated
notes: specificity control
effect on TBS-induced increase in fEPSP slope (30-40 min post-TBS) [1, 4]: no effect
